{"source": "paper PMC7397465", "about": "“Crystal structure of the Rab-binding domain of Rab11 family-interacting protein 2” (Acta Crystallographica. Section F, Structural Biology …, 2020)", "proteins": {"B1": {"name": "Rab-binding domain of Rab11 family-interacting protein 2 (domain or fragment, Homo sapiens)", "chain": "GSHMSNPFDATAGYRSLTYEEVLQELVKHKELLRRKDTHIRELEDYIDNLLVRVMEETPSILRVPYEPSRKAGKFSNS", "notes": "not FIP2 residues by the stated limits 439-512; Expression vector pNIC-Bsa4 with a TEV protease cleavage site; tag cleaved with TEV before crystallization; In the crystal at least the first seven and the last 15 residues are disordered (monomers seen from 445-451 to 496 or 497); also called FIP2; RBD of FIP2; source: Escherichia coli BL21(DE3), purified (nickel agarose, TEV cleavage, Mono Q, …)"}}, "molecular_target": "the molecule itself", "experiment": "crystal structure; vapor diffusion, 298 K; protein 6 mg/ml in 150 mM NaCl, 10 mM Tris-HCl, 1 mM DTT pH 7.5; reservoir 0.01 M cobalt chloride, 0.1 M sodium acetate pH 4.8, 1 M 1,6-hexanediol; 2.3 A; four monomers in the asymmetric unit"}
{"protein": "B1", "values": [{"measurement": "stoichiometry N", "value": 4}]}
